From patent publication US7083962B2, “Carbonyl reductases, polynucleotides comprising DNA encoding the same, methods for producing the same, and methods for producing optically active alcohol utilizing the same” (Daicel Chemical Industries Ltd., priority 2004, dated 2006)

B1: carbonyl reductase: NADPH-dependent carbonyl reductase purified from Torulaspora delbrueckii JCM 5921; amino acid sequence SEQ ID NO: 2 (protein, listed as Torulaspora delbrueckii)
chain: MSILVSGATGFIALHVVSDLLKQDYKVIGTVRSQEKADKLRKQFGNNPNLSFELVSDIAAPEAFDKVFQKHGKDIKVVLHTASPFTLETTNYEKDLLLPAVNGTKSILESIKKYAADSVERVVITSSYAAVMNVSKEGDGSIVYTEKDWNPATWENCQIDGLNAYCGSKKLAEKAAWDFFEDNKNVVKFKLSMINPTYVFGPQLFDEDVKDKLNTSCELINSIIKNNPQVGYLLENIKGHFVDVRDVAKAHLVAFQKDEAIGQRLLTSNGRFAYQDLVDIINEDFPQLKGKVIVGKPGAGKQLYGTFPDINNTRSKEILGFEFISLHKSVHDTAAQVLKKEGKL

Key:
carbonyl reductase [1] = assay: NADH-dependent 3,4-dimethoxyphenylacetone-reducing activity; assay type: biochemical, Torulaspora delbrueckii; conditions: substrate 5 mM, coenzyme NADH, pH 6.5, 30° C.
Experimental: (§1) The enzyme obtained in Example 1 was reacted with various ketones, ketoesters, and soon. The activities of the reduction reactions were expressed as relative activities, where the reduction of 3,4-dimethoxyphenylacetone was regarded as 100 (Table 2) (substrate specificity of carbonyl reductase). The activity of dehydrogenating 1-(3,4-dimethoxyphenyl)-2-propanol was measured as follows: A reaction was performed at 30° C. in a reaction solution comprising 50 mM Tris-HCl buffer (pH 8.5), 2.5 mM NADP^+, 5 mM 1-(3,4-dimethoxyphenyl)-2-propanol, and the enzyme. An increase in absorbance at 340 nm, accompanying NADPH production, was measured. 1 U was defined as the amount of enzyme catalyzing the production of 1 μmol NADPH per minute. In addition, the activity of reducing NADH-dependent 3,4-dimethoxyphenylacetone was measured as follows: A reaction was performed at 30° C. in a reaction solution comprising 50 mM potassium phosphate buffer (pH 6.5), 0.2 mM NADH, 5 mM 3,4-dimethoxyphenylacetone, and the enzyme, and decrease in absorbance at 340 nm, accompanying decrease in NADH, was measured. 1 U was defined as the amount of enzyme catalyzing a decrease of 1 μmol NADH per minute.

carbonyl reductase [2] = assay: Substrate specificity: NADPH-dependent reduction by the carbonyl reductase obtained in Example 1; assay type: biochemical, Torulaspora delbrueckii; conditions: substrate 5 mM, coenzyme NADPH; reduction of 3,4-dimethoxyphenylacetone regarded as 100
Experimental: (§2) A reaction solution comprising 50 mM potassium phosphate buffer (pH 6.5), 0.2 mM NADPH, 5 mM 3,4-dimethoxyphenylacetone, and an enzyme is reacted at 30° C. Any decrease in absorbance at 340 nm accompanying a decrease in NADPH is measured. 1U is defined as the amount of enzyme which catalyzes a 1 μmol decrease of NADPH in one minute.
as §1

[3] = Enzymatic synthesis of (S)-1-(3,4-dimethoxyphenyl)-2-propanol: optical purity and reaction yield; assay type: biochemical; conditions: 0.25 U carbonyl reductase, 50 mM 3,4-dimethoxyphenylacetone, overnight, 25° C., pH 6.5
Experimental: A reaction was performed overnight at 25° C. in 1 mL of a reaction solution comprising 200 mM potassium phosphate buffer (pH 6.5), 1 mM NADP^+, 2 U glucose dehydroganase (Wako Pure Chemical Industries, Ltd.), 250 mM glucose, 0.25 U carbonyl reductase, and 50 mM 3,4-dimethoxyphenylacetone. The optical purity of the produced (S)-1-(3,4-dimethoxyphenyl)-2-propanol was measured as follows: One mL of ethyl acetate was added to 0.5 mL of the reaction solution to extract (S)-1-(3,4-dimethoxyphenyl)-2-propanol, and the extraction solvent was desolvated. 0.5 mL of a dissolving solution (n-hexane: isopropanol=4:1) was then added to dissolve the extract, which was then analyzed by liquid chromatography using an optical resolution column. CHIRALCEL OF (4.6 mm×25 cm; Daicel Chemical Industries, Ltd.) was used as the optical resolution column. Chromatography was performed with a wavelength of 220 nm, a flow rate of 1.0 mL/min, and at 40° C. using an eluting solution of n-hexane: isopropanol=4:1.
In addition, the (S)-1-(3,4-dimethoxyphenyl)-2-propanol thus-produced was quantified using gas chromatography, and a yield relative to the raw starting material, 3,4-dimethoxyphenylacetone, was obtained. Specifically, the analysis was performed at a column temperature of 210° C., using Thermon 3000 (10%)-Chromosorb W (AW-DMCS, Mesh 60–80; 3.2 mm×210 cm) with a hydrogen flame ionization detector (FID). The resulting reaction yield was about 95%.
To prepare crude enzyme solution for enzyme reaction, the crude enzyme solution prepared in Example 18 was concentrated ten-folds using a UF membrane. This solution was reacted overnight at 25° C. in 1 mL of a reaction solution comprising 200 mM potassium phosphate buffer (pH 6.5), 1 mM NADP^+, 2 U glucose dehydrogenase (Wako Pure Chemical Industries, Ltd.), 250 mM glucose, 0.2 U homolog enzyme, and 50 mM 3,4-dimethoxyphenylacetone. Optical purity was measured and the produced (S)-1-(3,4-dimethoxyphenyl)-2-propanol was quantified as in Example 6. As a result, YGL157w (pSE-YGP7) produced 93.7% ee (S)-1-(3,4-dimethoxyphenyl)-2-propanol at a yield of 66%, YGL039w (pSE-YGD9) produced 93.6% ee at a yield of 94%, and YDR541c (pSE-YDR1) produced 94.8% ee at a yield of 6%.

[4] = 3,4-dimethoxyphenylacetone-reducing activity of the purified enzyme (specific activity, pH and temperature dependency); assay type: biochemical, Torulaspora delbrueckii; conditions: 3,4-dimethoxyphenylacetone reduction, NADPH, pH 6.5, 30° C.
Experimental: as §2
The specific activity of the purified enzyme was 196 mU/mg.
By changing the pH using potassium phosphate buffer, sodium acetate buffer, and Britton-Robinson buffer, the 3,4-dimethoxyphenylacetone-reducing activity of the enzyme obtained in Example 1 was investigated. Activity at each pH was expressed as a relative activity, where the maximum activity was regarded as 100 (FIG. 2). Optimal pH (showing 80% or more relative activity) was 5.5 to 6.5.
Of the standard reaction conditions, only the temperature was changed, and the 3,4-dimethoxyphenylacetone-reducing activity of the enzyme obtained in Example 1 was then measured. Activity at each temperature was expressed as a relative activity, where the maximum activity was regarded as 100 (FIG. 3). Optimal temperature (showing 80% or more relative activity) was 50° C. to 55° C.

Row | Molecule | Relative activity (carbonyl reductase [1]) | Relative activity (carbonyl reductase [2]) | Optical purity of the produced (S)-1-(3,4-dimethoxyphenyl)-2-propanol [3] | Reaction yield relative to 3,4-dimethoxyphenylacetone [3] | Specific activity of the purified enzyme [4]
1 | COc1ccc(CC(C)=O)cc1OC [3,4-Dimethoxyphenylacetone] | 0.0% | 100% | – | – | –
2 | B1 | – | – | ≥ 99 % ee | about 95% | 196 mU/mg
